# Experimental data: doi:10.1101/2024.02.16.580631 (bioRxiv, 2024)
# Target: the molecule itself
# Assay: crystal structure
protein,measurement,value
"Nucleoside diphosphate kinase B (NDPKB), human (enzyme, phosphorylated histidine at 118 (His 118-P) in the crystal) ANLERTFIAIKPDGVQRGLVGEIIKRFEQKGFRLVAMKFLRASEEHLKQHYIDLKDRPFFPGLVKYMNSGPVVAMVWEGLNVVKTGRVMLGETNPADSKPGTIRGDFCIQVGRNIIHGSDSVKSAEKEISLWFKPEELVDYKSCAHDWVYE",stoichiometry N,6
